Measured values taken from publication PMC10877986 (mAbs, 2024).
Where a chain is given by its changes, count along the chain named. Read-outs that look alike come from different tables or passages of the source.

Legend:
Experiment in all cases: SPR
[1] = target: T1, recombinant human PD-1 (Homo sapiens, UniProt Q15116)
[2] = target: T1, recombinant human PD-1; remark: listed apart in the source
[3] = target: recombinant cynomolgus monkey PD-1 (Macaca fascicularis (cynomolgus monkey), UniProt B0LAJ3)
[4] = target: recombinant mouse PD-1 (Mus musculus, UniProt Q02242)
Chain of recombinant mouse PD-1 (Q02242 25-169): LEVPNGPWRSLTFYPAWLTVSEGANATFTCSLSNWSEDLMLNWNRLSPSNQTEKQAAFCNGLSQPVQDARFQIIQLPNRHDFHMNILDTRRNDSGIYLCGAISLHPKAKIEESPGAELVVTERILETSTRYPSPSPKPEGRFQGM

T1 sequence (Q15116 25-170): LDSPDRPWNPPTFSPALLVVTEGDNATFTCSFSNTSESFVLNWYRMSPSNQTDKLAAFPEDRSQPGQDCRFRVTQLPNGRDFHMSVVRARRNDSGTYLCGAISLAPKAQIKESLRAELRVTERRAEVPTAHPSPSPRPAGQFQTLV

B1: h1340.CC (antibody, V domains shown)
VH: EQQLVESGGGVVQPGRSLRLSCAASGFSFSSTYWICWVRQAPGKGLEWIACIYAGSSGNTYYANWAKGRFTISKDSSSTTVFLQMNSLRAEDTAVYFCARAGGAGGGVYTLTRLDLWGQGTLVTVSS
VL: AAQLTQSPSSLSASVGDRVTITCQSSQSVYNNNDLAWYQQKPGKPPKLLIYTPSSLTSGVPSRFSGSGSGTDFTLTISSLQPEDFATYYCLGGYDDDSDNAFGGGTKVEIK
[1]
  Kd: 0.1 nM
[2]
  Kd: 0.3 nM
[3]
  Kd: 0.42 nM
[4]
  Kd: 1.72 nM

B2: h1340.SA.5 (antibody, V domains shown)
VH: B1 VH with C36S, C51A, A54L
VL: B1 VL
[1]
  binding result: binds

B3: h1340.AA (antibody, V domains shown)
VH: B1 VH with C36A, C51A
VL: B1 VL
[1]
  binding result: binds

B4: h1340.SA (antibody, V domains shown)
VH: B1 VH with C36S, C51A
VL: B1 VL
[1]
  Kd: 0.7 nM
[2]
  fold decrease in affinity against h1340.CC: ~2.5 fold
  fold decrease in affinity against rbt1340: 4 fold
[3]
  fold decrease in affinity against rbt1340: 6 fold
[4]
  fold decrease in affinity against h1340.CC: ~4 fold

B5: h1340.SA.6 (antibody, V domains shown)
VH: B1 VH with C36S, C51A, A101S
VL: B1 VL
[1]
  binding result: binds

B6: h1340.SA.3 (antibody, V domains shown)
VH: B1 VH with S30D, C36S, C51A
VL: B1 VL
[1]
  binding result: binds
